US7186408 (CAMBRIDGE UNIVERSITY TECHNICAL SERVICES, dated 2007)

Tests used:
[1] = molecular target: T1, Human CD30 on K562 cells (human, UniProt P28908 19-595); experiment: flow cytometry on K562 cells
T1 construct: also called cell surface CD30; cellular receptors
T1 sequence: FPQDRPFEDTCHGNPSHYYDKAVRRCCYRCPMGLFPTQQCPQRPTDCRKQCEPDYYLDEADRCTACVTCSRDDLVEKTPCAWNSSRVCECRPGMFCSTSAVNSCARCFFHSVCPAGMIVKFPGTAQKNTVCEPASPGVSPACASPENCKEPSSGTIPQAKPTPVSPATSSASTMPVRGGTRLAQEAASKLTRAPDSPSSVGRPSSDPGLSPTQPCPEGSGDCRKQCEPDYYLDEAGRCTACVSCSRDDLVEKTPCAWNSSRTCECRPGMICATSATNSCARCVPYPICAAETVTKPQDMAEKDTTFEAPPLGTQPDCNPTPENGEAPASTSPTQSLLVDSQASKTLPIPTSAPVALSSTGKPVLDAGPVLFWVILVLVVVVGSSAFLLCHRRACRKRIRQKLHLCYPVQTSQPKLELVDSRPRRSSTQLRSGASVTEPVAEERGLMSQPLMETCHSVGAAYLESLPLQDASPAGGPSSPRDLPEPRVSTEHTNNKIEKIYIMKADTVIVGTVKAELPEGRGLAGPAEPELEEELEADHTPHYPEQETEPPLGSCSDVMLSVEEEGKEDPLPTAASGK

[2] = molecular target: vCD30-Fc (EV Hampstead vCD30 fused to the Fc fragment of human IgG1, baculovirus AcCD30-Fc, purified from Hi5 … (ectromelia virus, strain Hampstead; …)
[3] = molecular target: T2, Recombinant mouse CD30-Fc (R&D Systems) (mouse, UniProt Q60846 19-281); experiment: Scatchard analysis (LIGAND), 2 ng mouse CD30 on protein A FlashPlate with increasing mouse 125I-CD30L
T2 construct: also called moCD30-Fc; not shown: Fc portion of the bought fusion protein
T2 sequence: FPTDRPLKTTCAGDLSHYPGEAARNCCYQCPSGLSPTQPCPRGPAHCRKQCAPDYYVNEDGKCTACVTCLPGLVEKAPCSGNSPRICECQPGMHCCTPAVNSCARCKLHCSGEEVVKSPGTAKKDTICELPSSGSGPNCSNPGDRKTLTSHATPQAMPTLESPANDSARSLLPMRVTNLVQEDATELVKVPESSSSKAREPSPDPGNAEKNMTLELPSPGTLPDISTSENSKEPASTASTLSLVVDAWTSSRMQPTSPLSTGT

B1: Recombinant mouse CD30L (soluble, 6x histidine-tagged, R&D Systems) (ligand, UniProt P32972 68-239, looked up)
chain: QKKDSTPNTTEKAPLKGGNCSEDLFCTLKSTPSKKSWAYLQVSKHLNNTKLSWNEDGTIHGLIYQDGNLIVQFPGLYFIVCQLQFLVQCSNHSVDLTLQLLINSKIKKQTLVTVCESGVQSKNIYQNLSQFLLHYLQVNSTISVRVDNFQYVDTNTFPLDNVLSVFLYSSSD
notes: also called 125I-CD30L; mouse 125I-CD30L
binding result [1]: binds
Kd [2]: 1 nM
Kd [3]: 1 nM
